Molecular target: PD17(p)PS413 (24AWF)
Assay: peptide-coated ELISA (plate coated with 1 µg/ml peptide 24AWF, anti-human IgG-HRP, ABTS, OD405)

B1: V5-AFM-hIgG4-S228P (antibody, V domains shown)
VH: EVQLVESGGGLVQPGGSLRLSCAASGFTFSSFALNWVRQAPGKGLEWVGHIRSKTNNYVTFYAASVKGRFTVSRDDSQNTAYLQMNSLKTEDTATYYCVRRGPRDSWFGYWGQGTLVTVSS
VL: DIVMTQSPLSLPVTLGEPASISCRSSQKIVHRNANTYLEWYLQKPGQSPQLLIYTVSNRFSGVPDRFSGSGSGTDFTLKISRVEAEDLGVYYCFQGSYLPLTFGGGTKVEIKR
  EC50 (read off the curve): 0.04 µg/mL

— patent publication US20230265175A1
